System: CXCR4
Assay: Discrimination power from published data: CXCR4
Conditions: ID 21; output Voltage; n 5; ns; ref Guyon 2013
Description: The broad method was to obtain a measure of ligand potency from each study. […] If not explicitly provided, we estimated ligand potency as PX , which was defined by the concentration of ligand that produced X response. To do this, we drew a horizontal line at X on a provided dose-response graph and estimated the ligand concentration where the data intercepted the horizontal line. The disadvantage with this method is that ligand potency was estimated based on the single representative graph provided in the study.
Each study often contained or cited a study that contained estimates of KD or koff for the specific TCR/pMHC interactions used in the study. We only included studies where monomeric SPR binding data was available to avoid multimeric binding parameters (e.g. when using tetramers). However, when analysing discrimination by other non-TCR receptors, we included binding data from various methods (e.g. SPR, radio labelled ligands) provided they were monomeric measurements. The use of SPR is important for weak interactions, such as TCR/pMHC, but various methods are available for higher-affinity interactions.
The plot of potency over KD or k off was fit using linear regression on log-transformed axes. We reported the slope of the fit (i.e. the discrimination power, α), the goodness-of-fit measure ( R^2 ), and the p-value for the null hypothesis that the slope is zero (i.e. α=0 ). […]

B1: CXCR4: receptor tested with Baclofen and other GABA ligands (protein, UniProt P61073 1-352, looked up)
C-X-C chemokine receptor type …: MEGISIYTSDNYTEEMGSGDYDSMKEPCFREENANFNKIFLPTIYSIIFLTGIVGNGLVILVMGYQKKLRSMTDKYRLHLSVADLLFVITLPFWAVDAVANWYFGNFLCKAVHVIYTVNLYSSVLILAFISLDRYLAIVHATNSQRPRKLLAEKVVYVGVWIPALLLTIPDFIFANVSEADDRYICDRFYPNDLWVVVFQFQHIMVGLILPGIVILSCYCIIISKLSHSKGHQKRKALKTTVILILAFFACWLPYYIGISIDSFILLEIIKQGCEFENTVHKWISITEALAFFHCCLNPILYAFLGAKFKTSAQHALTSVSRGSSLKILSKGKRGGHSSVSTESESSSFHSS
- Power (discrimination power): 0.5686
